According to patent US20220267469A1:

B1: AS20 scFv (scFv, V domains shown, not shown: small tags and cut ends)
VH: QVQLQQPGAELVKPGASVKMSCKASGYTFTSYNMHWVKQTPGQGLEWIGVIYPGNGDTSYNQKFKGKATLTADKSSSTAYMQLSSLTSEDSAVYYCARDYYGSSPLGYWGQGTTLTVSS
VL: QIVLTQSPAVMSASPGEKVTMTCSASSSISYMHWYQQKPGTSPKRWIYDTSKLASGVPARFSGSGSGTSYSLTISSMEAEDAATYYCHQRSSYPTFGGGTKLEIK
modifications: Gly-Ser linker; C-terminal 3xFLAG and His6 tags
B2: S-SL048-75 hIgG4 S228P (antibody, V domains shown)
VH: QVQLVQSGAEVKKPGASVKVSCKASGYTFTSYNMHWVRQAPGQGLEWMGVIYPGGGYTSYAQKFKGRVTMTRDTSTSTVYMELSSLRSEDTAVYYCARDYYGSSPLGYWGQGTLVTVSS
VL: DIQMTQSPSSLSASVGDRVTITCRASQSISYLNWYQQKPGKAPKLLIYATSNLQSGVPSRFSGSGSGTDFTLTISSLQPEDFATYYCHQRSSSPTFGQGTKLEIK

Experiments:
[1] = biological target: Biotinylated human BSSL (human) (UniProt P19835); assay: SPR single cycle kinetics, scFv captured by anti-FLAG M2
[2] = biological target: Biotinylated human BSSL (human) (UniProt P19835); assay: ELISA, b-hBSSL coated through streptavidin at 1 µg/ml, detection HRP anti-FLAG M2, A450
[3] = biological target: Biotinylated human BSSL (human) (UniProt P19835); assay: flow cytometry displacement assay; 1.5 ug antibody, 1 ug b-hBSSL
[4] = biological target: Biotinylated human BSSL (human) (UniProt P19835); assay: flow cytometry displacement assay; 3.0 ug antibody, 1 ug b-hBSSL

Chain of Biotinylated human BSSL (human) (P19835 other isoform, or with tags, fused parts or gaps): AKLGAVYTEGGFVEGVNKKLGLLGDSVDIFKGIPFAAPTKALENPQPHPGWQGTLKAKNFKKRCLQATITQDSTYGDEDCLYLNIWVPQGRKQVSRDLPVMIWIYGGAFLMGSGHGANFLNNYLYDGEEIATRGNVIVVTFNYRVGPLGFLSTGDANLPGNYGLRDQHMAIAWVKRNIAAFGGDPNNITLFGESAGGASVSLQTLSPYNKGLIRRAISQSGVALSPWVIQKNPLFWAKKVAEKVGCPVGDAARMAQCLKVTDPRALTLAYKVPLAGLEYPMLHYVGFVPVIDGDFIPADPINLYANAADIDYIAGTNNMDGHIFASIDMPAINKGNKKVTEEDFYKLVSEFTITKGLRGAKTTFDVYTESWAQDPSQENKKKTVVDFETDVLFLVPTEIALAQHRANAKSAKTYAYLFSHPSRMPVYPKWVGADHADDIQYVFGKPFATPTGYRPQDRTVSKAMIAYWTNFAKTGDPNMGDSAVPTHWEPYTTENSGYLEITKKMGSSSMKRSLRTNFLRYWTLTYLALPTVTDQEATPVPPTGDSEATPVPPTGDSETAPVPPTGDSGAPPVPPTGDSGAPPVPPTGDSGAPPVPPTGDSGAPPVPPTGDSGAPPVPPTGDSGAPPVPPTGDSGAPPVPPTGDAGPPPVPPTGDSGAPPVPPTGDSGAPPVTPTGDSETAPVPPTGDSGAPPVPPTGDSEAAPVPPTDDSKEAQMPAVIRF

Binder	Kd [1] [nM]	koff [1] [s⁻¹]	kon [1] [M⁻¹ s⁻¹]	EC50 (read off the curve) [2] [ng/mL]	percentage reduction of b-hBSSL binding to CD14+ monocytes [3] [%]	percentage reduction of b-hBSSL binding to CD14+ monocytes [4] [%]
B1	0.8	4.4e-05	55000	20		
B2					3	0
